Measurements reported in patent publication US20260116943A1, “PROCESSES FOR SYNTHESIZING GLUCAGON-LIKE-PEPTIDE 2 (GLP-2) ANALOGUES” (Zealand Pharma A/S, priority 2021, published 2026).
Read-outs that look alike come from different tables or passages of the source.

Legend:
[1] = cited from earlier work
[2] = precipitation of ZP1848 in solution with phosphate and NaCl, same conditions as on the column under RPC1; type: physicochemical
Protocol: Additionally, ZP1848 precipitates at neutral pH in solutions containing NaCl, phosphate, NaOH and high ionic strength.
Below in Table 4.1 various formulations of ZP1848 were prepared in 100 mM NaCl and 45 mM phosphate (the buffers are described in Example 1.12) at different pH and/or concentrations in order to reflect the same conditions in solution as present in the column under RPC1.
Additionally, it was shown that ZP1848 precipitates even at low concentrations at pH 7.5 (0.2 and 0.5 mg/mL).

CC[C@H](C)[C@H](NC(=O)[C@H](Cc1ccccc1)NC(=O)[C@H](CC(=O)O)NC(=O)[C@H](CCCNC(=N)N)NC(=O)[C@H](C)NC(=O)[C@H](C)NC(=O)[C@H](CC(C)C)NC(=O)[C@H](CC(N)=O)NC(=O)[C@H](CC(=O)O)NC(=O)[C@H](CC(C)C)NC(=O)[C@@H](NC(=O)[C@@H](NC(=O)[C@H](CC(N)=O)NC(=O)[C@H](CCSC)NC(=O)[C@H](CCC(=O)O)NC(=O)[C@H](CC(=O)O)NC(=O)[C@H](CO)NC(=O)[C@H](Cc1ccccc1)NC(=O)[C@H](CO)NC(=O)CNC(=O)[C@H](CC(=O)O)NC(=O)CNC(=O)[C@@H](N)Cc1c[nH]cn1)[C@@H](C)O)[C@@H](C)CC)C(=O)N[C@@H](CC(N)=O)C(=O)N[C@@H](Cc1c[nH]c2ccccc12)C(=O)N[C@@H](CC(C)C)C(=O)N[C@H](C(=O)N[C@@H](CCC(N)=O)C(=O)N[C@H](C(=O)N[C@@H](CCCCN)C(=O)N[C@H](C(=O)N[C@H](C(=O)N[C@@H](CC(=O)O)C(=O)O)[C@@H](C)O)[C@@H](C)CC)[C@@H](C)O)[C@@H](C)CC [teduglutide, [hGly2] GLP-2]
half-life ([1]; Gly substitution at position 2, compared with native GLP-2): about two

Hy-His-Ala-Asp-Gly-Ser-Phe-Ser-Asp-Glu-Met-Asn-Thr-Ile-Leu-Asp-Asn-Leu-Ala-Ala-Arg-Asp-Phe-Ile-Asn-Trp-Leu-Ile-Gln-Thr-Lys-Ile-Thr-Asp-OH [GLP-2 [1-33]]
half-life ([1]; in humans): around 7 minutes

GLP-2 [3-33]: truncated GLP-2 [3-33] (DGSFSDEMNTILDNLAARDFINWLIQTKITD; Glucagon-like peptide 2; UniProt P01275 148-178, looked up, fragment)
half-life ([1]; in humans): ~27 min

H-HGEGTFSSELATILDALAARDFIAWLIATKITDKKKKKK-NH2 [ZP1848]
precipitation in solution ([2]; neutral pH, solutions containing NaCl, phosphate, NaOH and high ionic strength): precipitates | precipitation at low concentrations ([2]; pH 7.5, 0.2 and 0.5 mg/mL): precipitates | precipitation in peptide product solution ([2]; phosphate buffer/phosphoric acid, neutral pH): precipitates | time of precipitation after sample preparation ([2]; same conditions in solution as on the column during RPC1): within minutes
